Data on one molecule can be found in patent US20230257448A1 (TWIST BIOSCIENCE, published 2023).

This test concerns the target T1, S1 monomer of SARS-CoV-2 Omicron (SARS-CoV-2, UniProt P0DTC2 16-685).
T1 construct: domain: S1
Briefly: SPR (Carterra LSA, antibody amine-coupled to the chip, spike protein as analyte).

B1: 3-31 (Fc fusion)
chain: EVQLVESGGGLVQPGGSLRLSCAASGSTFSINAMGWFRQAPGKEREFVAGITSSGGYTNYADSVKGRFTISADNSKNTAYLQMNSLKPEDTAVYYCAADGVPEYSDYASGPVWGQGTLVTVSS
With B1, the binding result is listed as “no binding”.
